In assay [1] the target is IFP2.0 (UniProt Q9RZA4). Nature of the assay: AUC.
Assay [2] addresses IFP1.4 (UniProt Q9RZA4). Nature of the assay: AUC.

pKd: −log10 of the molar value.

By pKd is commonly meant −log10 of the Kd, conventionally taken in molar units. Broadly, the stoichiometry N is the number of molecules, sites or subunits per partner or assembly. Regarding IFP2.0 (from UniProt Q9RZA4 1-321), in assay [1], the pKd is 5.43 and the stoichiometry N is 2.
As for IFP1.4 (from UniProt Q9RZA4 1-321), in assay [2], the pKd was 5.11 and the stoichiometry N was found to be 2.
